This data set deals with the molecule itself. Kind of data set: crystal structure; vapour diffusion, crenactin around 2-5 mg/ml, 100 mM phosphate/citrate pH 4.2, 200 mM lithium sulfate, 20% PEG 1000; space group P41212; 3.2 Å; ADP bound.

B1: Pyrobaculum calidifontis crenactin (natural protein, UniProt A3MWN5 1-432, looked up)
chain: MGVISDAYRLKYTFGVDFGTSYVKYGPITLNEPKMVQTRGLFLRDLPESVKMRIPPDVLARGLVVGDEEVRKYLSSVRDVQRNLKYPLKDGVARRDDEEAWRVLKELARYTLAQFPVSDPEFAGWLVAVALSALAPDYMYKAIFDIYDELASEFKIYAVTILPQPLAVAIAENAVNCVIVEGGHGNIQVAPISFALIREGLVALNRGGAEANAITREILKDIGYSDIAREEYAVEVVKRAVGLVPRRLKEAIRAAKSDPDRFVTKVRLSPVVEVEIPREYAWTRFLIGEIVFDPNHEEIKSYIEQSRLRIENAVIGDVTLYGEMDVASAIITSLRNVSVEIQERVASQIILSGGAFSWRVPPGMEDVAADSVTRVKIALEEKSPALASKVEVRLVSEPQYSVWRGAVIYGYALPLSLEWSDTTREGWRFPRR
notes: crenactin, Pyrobaculum calidifontis, NCBI YP_001056518.1, residues 1-432; full-length protein with no residues added or removed after SUMO cleavage; Gene codon-optimised for E. coli, cloned into pOPINS (HIS6-SUMO-POI); the crystal holds 2 monomers per asymmetric unit, packing as a continuous filament; also called Pc crenactin; source: E. coli BL21(AI), purified (HisTrap, SUMO protease SENP1 …)
For the protein B1, the binding result is reported as “binds”.

The record behind these values is publication PMC4158420, “Crenactin from Pyrobaculum calidifontis is closely related to actin in structure and forms steep helical filaments” (Febs Letters, 2014).
